Test results from patent publication US20100184658A1 (published 2010).

Experiments:
Assay in all cases: cell-based or functional assay
[1] = target: T1, SGK (SGK1) Serum/glucocorticoid regulated kinase (human (printed as (h)), UniProt O00141 60-431, limits assumed)
T1 sequence (looked up): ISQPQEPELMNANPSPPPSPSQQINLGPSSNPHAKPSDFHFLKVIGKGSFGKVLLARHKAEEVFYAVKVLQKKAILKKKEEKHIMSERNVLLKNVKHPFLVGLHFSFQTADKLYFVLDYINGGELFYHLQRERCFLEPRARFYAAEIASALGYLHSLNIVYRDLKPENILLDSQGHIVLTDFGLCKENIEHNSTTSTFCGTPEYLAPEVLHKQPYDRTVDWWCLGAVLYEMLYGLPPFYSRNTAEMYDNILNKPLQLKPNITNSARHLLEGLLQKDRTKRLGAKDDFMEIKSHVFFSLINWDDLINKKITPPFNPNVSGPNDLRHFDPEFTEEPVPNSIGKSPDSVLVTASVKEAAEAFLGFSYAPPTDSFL

[2] = target: RPS6KA1 (RSK1) Ribosomal protein S6 kinase, 90 kDa, polypeptide 1 (UniProt Q15418 1-735, limits assumed)
[3] = target: MAP2K1 (MEK1) (UniProt Q02750 1-393, limits assumed)
[4] = target: CAMK2D (CaMKII delta) (UniProt Q13557 1-499, limits assumed)
[5] = target: T2, PRKCN (PKD3) (UniProt O94806 1-890, limits assumed)
T2 sequence (looked up): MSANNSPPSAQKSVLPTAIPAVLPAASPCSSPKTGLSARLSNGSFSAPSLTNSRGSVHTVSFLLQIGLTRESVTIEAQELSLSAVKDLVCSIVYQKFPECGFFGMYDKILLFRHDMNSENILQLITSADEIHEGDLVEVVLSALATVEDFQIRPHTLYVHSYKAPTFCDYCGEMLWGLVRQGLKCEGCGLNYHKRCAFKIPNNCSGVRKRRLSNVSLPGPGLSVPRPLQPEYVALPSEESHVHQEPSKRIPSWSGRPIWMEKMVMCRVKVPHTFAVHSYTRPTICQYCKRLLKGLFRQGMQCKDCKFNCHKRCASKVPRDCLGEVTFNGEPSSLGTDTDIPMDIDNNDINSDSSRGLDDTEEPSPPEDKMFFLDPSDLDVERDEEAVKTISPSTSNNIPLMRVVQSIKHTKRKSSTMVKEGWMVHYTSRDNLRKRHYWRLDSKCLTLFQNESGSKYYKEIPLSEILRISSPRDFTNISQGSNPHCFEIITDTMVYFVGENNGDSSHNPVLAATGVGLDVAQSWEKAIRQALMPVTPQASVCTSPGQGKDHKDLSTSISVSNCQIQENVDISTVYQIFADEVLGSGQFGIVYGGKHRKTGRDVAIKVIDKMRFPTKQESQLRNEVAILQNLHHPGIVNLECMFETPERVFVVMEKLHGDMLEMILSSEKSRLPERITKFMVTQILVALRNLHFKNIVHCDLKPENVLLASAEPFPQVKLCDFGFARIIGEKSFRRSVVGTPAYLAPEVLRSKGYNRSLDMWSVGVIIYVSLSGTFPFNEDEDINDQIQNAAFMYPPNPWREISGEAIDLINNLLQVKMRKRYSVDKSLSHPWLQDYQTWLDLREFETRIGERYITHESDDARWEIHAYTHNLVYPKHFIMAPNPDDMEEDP

[6] = target: MYLK2 (skMLCK) (UniProt Q9H1R3 1-596, limits assumed)
[7] = target: GRK4 (UniProt P32298 1-578, limits assumed)
Also: test concentration or dose not given here.

Chain of GRK4 (P32298 whole entry): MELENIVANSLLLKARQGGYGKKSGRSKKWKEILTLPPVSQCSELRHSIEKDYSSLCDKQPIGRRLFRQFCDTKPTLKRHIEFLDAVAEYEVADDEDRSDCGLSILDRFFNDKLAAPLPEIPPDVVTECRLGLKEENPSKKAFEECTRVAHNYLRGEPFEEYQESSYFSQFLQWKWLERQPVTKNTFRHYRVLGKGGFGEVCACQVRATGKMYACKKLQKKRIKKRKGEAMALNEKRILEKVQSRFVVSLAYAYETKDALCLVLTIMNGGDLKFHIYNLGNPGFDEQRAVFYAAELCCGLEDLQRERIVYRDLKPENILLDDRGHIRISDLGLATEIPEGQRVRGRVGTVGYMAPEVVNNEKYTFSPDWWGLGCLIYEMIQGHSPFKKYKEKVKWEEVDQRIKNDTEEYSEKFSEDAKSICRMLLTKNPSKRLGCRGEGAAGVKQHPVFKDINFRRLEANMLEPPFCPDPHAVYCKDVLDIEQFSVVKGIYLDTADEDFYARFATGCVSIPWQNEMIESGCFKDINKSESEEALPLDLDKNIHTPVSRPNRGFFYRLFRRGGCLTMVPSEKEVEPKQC
Chain of MYLK2 (skMLCK) (Q9H1R3 whole entry): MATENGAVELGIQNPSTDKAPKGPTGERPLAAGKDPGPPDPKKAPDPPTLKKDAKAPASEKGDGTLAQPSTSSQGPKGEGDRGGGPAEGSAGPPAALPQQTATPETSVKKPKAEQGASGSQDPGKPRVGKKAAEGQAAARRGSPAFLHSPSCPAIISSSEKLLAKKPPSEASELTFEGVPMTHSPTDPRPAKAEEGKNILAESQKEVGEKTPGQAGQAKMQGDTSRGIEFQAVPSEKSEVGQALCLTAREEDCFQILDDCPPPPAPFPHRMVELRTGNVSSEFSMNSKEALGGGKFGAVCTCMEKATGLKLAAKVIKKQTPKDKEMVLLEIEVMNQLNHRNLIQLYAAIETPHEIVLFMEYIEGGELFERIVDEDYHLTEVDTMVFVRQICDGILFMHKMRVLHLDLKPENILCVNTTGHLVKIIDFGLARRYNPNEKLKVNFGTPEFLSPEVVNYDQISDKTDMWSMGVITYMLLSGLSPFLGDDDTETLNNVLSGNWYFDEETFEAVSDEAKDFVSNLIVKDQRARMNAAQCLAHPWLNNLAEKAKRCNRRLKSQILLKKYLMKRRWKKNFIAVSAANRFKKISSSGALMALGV
Chain of CAMK2D (CaMKII delta) (Q13557 whole entry, stated change not applied): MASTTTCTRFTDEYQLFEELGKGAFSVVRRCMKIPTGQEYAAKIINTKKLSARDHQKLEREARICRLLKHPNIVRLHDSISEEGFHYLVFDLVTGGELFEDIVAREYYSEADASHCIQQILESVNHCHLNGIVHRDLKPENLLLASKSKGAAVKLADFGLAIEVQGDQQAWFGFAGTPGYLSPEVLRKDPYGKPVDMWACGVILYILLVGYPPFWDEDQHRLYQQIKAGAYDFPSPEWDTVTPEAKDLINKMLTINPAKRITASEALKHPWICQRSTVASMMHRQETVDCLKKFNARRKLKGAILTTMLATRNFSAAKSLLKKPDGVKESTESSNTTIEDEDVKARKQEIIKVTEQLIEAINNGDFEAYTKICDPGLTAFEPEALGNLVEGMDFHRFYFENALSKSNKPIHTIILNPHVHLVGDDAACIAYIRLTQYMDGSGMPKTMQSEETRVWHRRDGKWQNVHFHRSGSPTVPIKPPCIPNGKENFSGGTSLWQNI
Chain of RPS6KA1 (RSK1) Ribosomal protein S6 kinase, 90 kDa, polypeptide 1 (Q15418 whole entry): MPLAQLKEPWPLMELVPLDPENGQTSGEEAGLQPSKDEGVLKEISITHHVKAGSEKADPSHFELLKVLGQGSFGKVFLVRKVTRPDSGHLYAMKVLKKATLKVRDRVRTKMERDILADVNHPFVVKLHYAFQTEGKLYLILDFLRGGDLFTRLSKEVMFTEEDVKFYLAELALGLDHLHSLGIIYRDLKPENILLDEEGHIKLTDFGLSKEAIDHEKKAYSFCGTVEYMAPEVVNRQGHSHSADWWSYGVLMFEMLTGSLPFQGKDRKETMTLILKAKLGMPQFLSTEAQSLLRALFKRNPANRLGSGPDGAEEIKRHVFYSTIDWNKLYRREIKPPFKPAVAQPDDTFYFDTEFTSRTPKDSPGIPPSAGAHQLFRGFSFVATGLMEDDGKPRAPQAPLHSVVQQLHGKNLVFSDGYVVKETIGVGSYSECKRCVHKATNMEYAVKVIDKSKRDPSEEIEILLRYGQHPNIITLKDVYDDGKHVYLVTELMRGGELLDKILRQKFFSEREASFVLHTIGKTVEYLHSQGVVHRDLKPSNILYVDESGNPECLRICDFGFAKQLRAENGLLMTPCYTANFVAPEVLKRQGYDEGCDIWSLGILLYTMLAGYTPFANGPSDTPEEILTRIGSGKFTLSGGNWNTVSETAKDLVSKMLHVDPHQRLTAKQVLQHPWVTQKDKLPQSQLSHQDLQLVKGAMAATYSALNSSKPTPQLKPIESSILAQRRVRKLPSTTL

SGRPPMIVWFNRPFLIAVSHTHGQTILFMAKVINPVGA [D3 peptide]
% Inhibition mean [1]: 100%
% Inhibition mean [2]: 98.3%
% Inhibition mean [3]: 94%
% Inhibition mean [4]: 72.5%
% Inhibition mean [5]: 69.6%
% Inhibition mean [6]: 64.6%
% Inhibition mean [7]: 58.6%
